Source: patent US20240139351A1, “TARGETING SYSTEM WITH IMPROVED UPTAKE” (CORETAG IP B.V., priority 2021, published 2024)

What was measured:
[1] = tested on: intracellular proteins, including tubulin and actin; assay: Affinity of cyanines towards intracellular proteins; type: binding
Excerpt: (§1) The present targeting molecule is very selective and very specific in binding to necrotic cells. […] For the present invention three specific cyanines are selected, namely 800CW, 800RS, and ZW-800. These molecules are found to have a high affinity towards the intracellular proteins, including tubulin and actin. […] As a result, very low concentrations c.q. amounts of the present system may be used to provide advantageous effects thereof. It is noted that apoptosis specific probes, in contrast to necrosis specific probes will also target healthy tissue as apoptosis is involved in normal tissue turnover. The present cyanine is attached to a second entity, namely a linker, wherein the linker may even be a relatively small molecule, the linker being attached to the present drug uptake improving molecule, wherein the drug uptake improving molecule is selected from aromatic compounds comprising a residue or group selected from amino acid residues, which latter molecule is attached to the chelator, wherein the chelator is typically selected from DOTA and NOTA comprising compounds (DOTA: 1,4,7,10-Tetraazacy-clododecane-1,4,7,10-tetraacetic acid and NOTA: 1,4,7-triazacyclononane-N,N′,N″-tri-acetic acid). Attached to the chelator a further entity may be attached, such as a radionuclide. […]

[2] = Clearance of cyanines in the human body; conditions: in vivo
Excerpt: as §1

NCI-H69 tumor = assay: Biodistribution of 111In-radiolabeled compounds in mice bearing NCI-H69 tumors
Excerpt: CORETAG has evaluated the radiolabeling, in vitro binding, pharmacology in tumor animal model, and PET or SPECT imaging with an overall expertise in targeted radiotherapy and companion imaging diagnostic. The aim of this part is to evaluate the biodistribution of the 4 compounds below and compare it to the biodistribution of DOT-AGA-PEG4-CW800 (prior art).
The injected activity was about 9.0 MBq.
The NCI-H69 cell line used is a human small cell lung cancer carcinoma that was
Tumor cells were grown at 37° C. in a humidified atmosphere (5% CO2, 95% air). The culture medium will be RPMI1640 medium containing 10% fetal calf serum. NCI-H69 tumor cells are growing as a cell suspension. For experimental use, tumor cells were harvested by centrifugation. Cells were counted and viability assessed using a 0.25% try-pan blue exclusion assay.
Thirty-one (31) healthy female SWISS Nude (Crl:NU(Ico)-Foxn1nu) mice, 6-8 weeks old at reception, were obtained from Charles River. The injection volume was 100 μl.
Tumors were induced by subcutaneous injection of 2×10^7 NCI-H69 cells in 200 μL of RPMI 1640 into the right flank of 31 female animals in the axis of the heart. NCI-H69 tumor cell implantation was performed 24 to 72 hours after a whole-body irradiation with a gamma-source (2 Gy, 60 Co, BioMep, France). The day of tumor induction is considered as D0.
All imaging experiments were performed on a 4.7T horizontal magnet (PharmaS-can, Bruker Biospin GmbH, Germany) equipped with an actively shielded gradient system. All the MR images were acquired under ParaVision (PV5.1, Bruker Biospin).

[3] = Aqueous solution concentration; type: physicochemical

Compound: CC1(C)C(=CC=C2CCCC(C=CC3=[N+](CCC[N+](C)(C)C)c4ccc(S(=O)(=O)O)cc4C3(C)C)=C2Oc2ccc(CCC(=O)O)cc2)N(CCC[N+](C)(C)C)c2ccc(S(=O)(=O)O)cc21 [ZW-800]
- affinity towards the intracellular proteins [1]: high affinity
- clearance in the human body [2]: cleared in the human body specifically well

Compound: DOTAGA-LYS-(PEG4-CW800)2 [component 5]
- Uptake in all organs (NCI-H69 tumor; all organs): increased
- concentration present (assessment) (NCI-H69 tumor; mouse, in vivo): too high concentration
- uptake in tumor (NCI-H69 tumor; tumor): higher uptake

Compound: IR800CW-PEG4-NaI-DOTA-GA [component 6]
- Radioactivity in blood (comparison between components) (NCI-H69 tumor; mouse, in vivo): higher
- dosage to all organs tested compared to components 1-4 (NCI-H69 tumor; mouse, in vivo): about twice as high
- dosage to the tumor compared to components 1-4 (NCI-H69 tumor; mouse, in vivo): about twice as high
- uptake in tumor (NCI-H69 tumor; mouse, in vivo): higher uptake
- Remaining radioactivity in whole body after 3 h (NCI-H69 tumor; mouse, in vivo, 3 h): higher
- forms an aqueous solution [3]: > 1 mM

Compound: CC1(C)C(/C=C/C2=C(Oc3ccc(S(=O)(=O)O)cc3)C(=C/C=C3/N(CCCCS(=O)(=O)O)c4ccc(S(=O)(=O)[O-])cc4C3(C)C)/CCC2)=[N+](CCCCCC(=O)O)c2ccc(S(=O)(=O)O)cc21 [800CW]
- affinity towards the intracellular proteins [1]: high affinity
- clearance in the human body [2]: cleared in the human body specifically well
